Here are results for 1 molecule from US20120231006A1 (Amgen, published 2012).

In assay [1] the target is T1, mOrai1-hOrai1 ECL2 (AESVIV) protein (human/mouse chimera, UniProt Q8BWG9 1-304 (mouse entry)).
T1 construct: also called Ch
The experiment in a line: FACS, 293EBNA, RFI-POC grade. More on the design: concentration or dose not given beside the values. A digest of the protocol: (§1)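 HEK-293-EBNA cells expressing mOrai1-hOrai1 ECL2 chimeric mutants stained with recombinant monoclonal antibodies, then PE-labelled goat anti-human IgG F(ab′)2, and analysed by FACS. RFI-POC derived from geometric mean fluorescence; graded +++ (40–100%), ++ (5–<40%), + (1–<5%), − (<1%).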
(Flow cytometry measures light scatter and fluorescence of single cells or particles in a stream.)

The target of assay [2] is T2, mOrai1-hOrai1 ECL2 (…) protein (human/mouse chimera, UniProt Q8BWG9 1-304 (mouse entry)).
T2 construct: also called Ch
T2 sequence (Q8BWG9 other isoform, or with tags, fused parts or gaps): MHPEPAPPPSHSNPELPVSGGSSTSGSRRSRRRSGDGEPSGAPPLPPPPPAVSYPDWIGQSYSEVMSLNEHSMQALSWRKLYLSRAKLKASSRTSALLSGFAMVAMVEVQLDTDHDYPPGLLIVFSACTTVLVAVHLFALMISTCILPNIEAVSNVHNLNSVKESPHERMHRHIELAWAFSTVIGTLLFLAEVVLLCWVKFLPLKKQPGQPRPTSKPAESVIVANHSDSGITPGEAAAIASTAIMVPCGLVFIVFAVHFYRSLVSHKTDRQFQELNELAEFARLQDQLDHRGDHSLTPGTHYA
Briefly: FACS, 293EBNA, RFI-POC grade. More on the design: concentration or dose not given beside the values. The method in brief: as §1

Assay [3] concerns the target human Orai1 (human, UniProt Q96D31 1-301). The experiment in a line: cell-based or functional assay.

Chain of human Orai1 (Q96D31 whole entry): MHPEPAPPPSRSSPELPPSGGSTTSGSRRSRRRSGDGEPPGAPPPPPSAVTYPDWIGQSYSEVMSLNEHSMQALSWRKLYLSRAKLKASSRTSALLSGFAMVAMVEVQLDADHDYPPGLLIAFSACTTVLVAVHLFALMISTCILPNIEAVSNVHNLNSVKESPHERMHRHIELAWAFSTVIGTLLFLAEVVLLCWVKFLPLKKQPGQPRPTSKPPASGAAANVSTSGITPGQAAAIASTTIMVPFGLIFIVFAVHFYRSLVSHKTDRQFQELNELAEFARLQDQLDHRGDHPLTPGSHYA
T1 sequence (Q8BWG9 other isoform, or with tags, fused parts or gaps): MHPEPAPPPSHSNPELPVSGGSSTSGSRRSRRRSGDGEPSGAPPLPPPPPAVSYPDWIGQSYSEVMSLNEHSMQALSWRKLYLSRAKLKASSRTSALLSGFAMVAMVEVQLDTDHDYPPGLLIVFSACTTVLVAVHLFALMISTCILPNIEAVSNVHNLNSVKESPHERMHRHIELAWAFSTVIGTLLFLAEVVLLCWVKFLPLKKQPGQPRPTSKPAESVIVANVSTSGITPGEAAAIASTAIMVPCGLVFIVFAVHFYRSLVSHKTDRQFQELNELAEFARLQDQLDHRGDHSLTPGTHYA

B1: mAb 5B1.1 (antibody, human IgG2, lambda, V domains shown)
VH: QVQLVQSGAEVKKPGASVKVSCKASGYTFTDYYINWVRQAPGQGLEWMGWINPNSGGSSYAQKFQGRVTMTRDTSISTAHMELIRLRSDDTAVYYCARERGGIEDWFDPWGQGTLVTVSS
VL: QSVLTQPPSVSGAPGQRVTISCTGSSSNIGAGYDVHWYQQLPGTAPKLLIYGNSNRPSGVPDRFSGSKSGTSASLAITKFQAEDEAVYYCQSYGSGLSGVVFGGGTKLTVLG
notes: fully human IgG2 lambda, Campaign 2; also called mAb 5Bl1.1
B1: in assay [1], the “POC (percent of control, FACS Geo Mean relative to binding to Ch. 1)” value fell in the range of 1 to 5%. Besides, in assay [2], the “POC (percent of control, FACS Geo Mean relative to binding to Ch. 1)” value lay within 1 to 5%. In assay [3], the “IC50 IFN-γ, whole blood Donor A, recombinant mAb” value came to 0.52 nM; the “IC50 IFN-γ, whole blood Donor B, recombinant mAb” value came to 34.8 nM; the “IC50 IL-2, whole blood Donor A, recombinant mAb” value was 2.08 nM; the “IC50 IL-2, whole blood Donor B, recombinant mAb” value stood at 9.52 nM.
